Measurements as given in patent US20200057047A1 (NATIONAL HEALTH RESEARCH INSTITUTES, published 2020).

Assays:
[1] = target: IQGAP1, endogenous, lung tissues of mice in the LLC/luc metastatic lung cancer model (mouse, UniProt Q9JKF1 2-1657); assay: in situ PLA, lung tissues of the LLC/luc mouse model (FIG. 16H, upper panel)
[2] = target: T1, GLK (MAP4K3) (transfected; construct of the ALPHA assay with AhR not stated) (UniProt Q8IVH8 1-894, limits assumed); assay: ALPHA protein-protein interaction assay
T1 construct: Expression plasmid 'reported previously'
T1 sequence (looked up): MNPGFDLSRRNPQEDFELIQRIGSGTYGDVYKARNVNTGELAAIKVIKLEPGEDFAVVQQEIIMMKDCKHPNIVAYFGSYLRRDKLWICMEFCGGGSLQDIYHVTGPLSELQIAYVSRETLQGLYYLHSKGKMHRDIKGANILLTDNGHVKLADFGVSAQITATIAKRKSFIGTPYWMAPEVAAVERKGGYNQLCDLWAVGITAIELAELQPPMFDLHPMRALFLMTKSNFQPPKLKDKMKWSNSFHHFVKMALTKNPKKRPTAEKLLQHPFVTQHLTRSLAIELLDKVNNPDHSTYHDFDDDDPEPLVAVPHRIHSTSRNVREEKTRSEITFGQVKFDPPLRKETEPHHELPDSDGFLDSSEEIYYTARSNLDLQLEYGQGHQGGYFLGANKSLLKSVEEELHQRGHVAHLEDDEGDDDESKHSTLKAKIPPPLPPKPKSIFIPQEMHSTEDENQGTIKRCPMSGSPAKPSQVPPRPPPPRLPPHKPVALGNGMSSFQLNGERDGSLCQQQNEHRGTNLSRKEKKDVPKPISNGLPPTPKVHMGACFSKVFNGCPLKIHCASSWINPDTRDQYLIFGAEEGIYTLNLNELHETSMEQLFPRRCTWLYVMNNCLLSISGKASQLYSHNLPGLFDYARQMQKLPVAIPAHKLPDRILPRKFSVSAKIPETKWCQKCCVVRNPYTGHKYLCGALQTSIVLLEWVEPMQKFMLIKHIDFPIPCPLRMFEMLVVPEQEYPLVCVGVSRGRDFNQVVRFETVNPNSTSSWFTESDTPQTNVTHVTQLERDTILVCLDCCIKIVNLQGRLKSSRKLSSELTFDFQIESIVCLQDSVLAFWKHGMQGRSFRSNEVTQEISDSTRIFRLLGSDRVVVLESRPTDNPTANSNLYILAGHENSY

[3] = target: IQGAP1, endogenous, human NSCLC tissues (human, UniProt P46940 2-1657); assay: in situ PLA with probes for GLK and IQGAP1, human NSCLC tissue sections (FIGS. 21A-B)
Text: These tissues were subjected to in situ proximity ligation assay (PLA) with a combination of paired PLA probes corresponding to GLK and IQGAP1. […] The few PLA signals in the normal adjacent tissues of NSCLC patients may be metastatic cancer cells migrating from original lesion. […] Next, we studied whether the GLK−IQGAP1 complex could act as a potential prognostic biomarker for NSCLCs. NSCLC (squamous cell carcinoma and adenocarcinoma) patients, whose survival data were available, were divided into four PLA-signal subgroups after cluster analyses. The two subgroups with highest PLA signals contained only one and two patients, respectively, thus, these two subgroups were excluded from further analysis. The remaining two subgroups (n=63) were subjected to Kaplan-Meier survival analysis using the survival data (available from the provider). […] The higher P value (P=0.069) may be due to the exclusion of three data with highest PLA signals. Nevertheless, NSCLC patients with more GLK−IQGAP1 complexes have a lower survival rate than that of the patients with less GLK−IQGAP1 complexes. Because 40% to 60% of NSCLC patients the of cancer recurrence after cancer resection, we studied whether the GLK−IQGAP1 complex is associated with NSCLC metastasis. […]

[4] = target: T2, AhR, endogenous, human peripheral blood T cells (SLE and RA patients) (human, UniProt P35869 11-848, limits assumed); assay: in situ PLA, human peripheral blood T cells (FIG. 8C)
T2 sequence (looked up): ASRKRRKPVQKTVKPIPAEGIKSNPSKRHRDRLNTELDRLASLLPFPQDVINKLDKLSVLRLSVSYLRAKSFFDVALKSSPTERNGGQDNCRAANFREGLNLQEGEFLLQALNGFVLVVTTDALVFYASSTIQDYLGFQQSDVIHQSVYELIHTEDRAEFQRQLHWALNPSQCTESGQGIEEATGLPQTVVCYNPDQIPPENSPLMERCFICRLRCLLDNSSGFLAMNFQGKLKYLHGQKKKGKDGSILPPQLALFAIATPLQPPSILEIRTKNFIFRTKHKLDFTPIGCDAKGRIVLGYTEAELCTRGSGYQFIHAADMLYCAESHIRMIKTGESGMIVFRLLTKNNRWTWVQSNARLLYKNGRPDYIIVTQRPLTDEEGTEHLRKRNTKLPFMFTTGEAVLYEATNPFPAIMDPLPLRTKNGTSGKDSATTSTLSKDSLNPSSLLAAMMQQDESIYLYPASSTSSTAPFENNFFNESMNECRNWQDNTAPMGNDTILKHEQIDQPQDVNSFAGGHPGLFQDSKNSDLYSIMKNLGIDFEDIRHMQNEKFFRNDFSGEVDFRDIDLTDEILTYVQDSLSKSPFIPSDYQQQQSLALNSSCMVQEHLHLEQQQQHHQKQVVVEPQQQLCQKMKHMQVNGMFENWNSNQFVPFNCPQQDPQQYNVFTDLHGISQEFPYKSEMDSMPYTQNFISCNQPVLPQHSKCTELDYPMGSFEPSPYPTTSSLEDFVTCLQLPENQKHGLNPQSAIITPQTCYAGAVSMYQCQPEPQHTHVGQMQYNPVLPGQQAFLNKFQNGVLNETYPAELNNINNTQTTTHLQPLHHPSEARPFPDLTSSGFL

HA-tagged AhR = target: T3, HA-tagged AhR (Homo sapiens (Human), UniProt P35869 1-848, limits assumed); assay: co-IP, HEK293T cells co-transfected with IKKβ-CFP (FIG. 5I)
T3 construct: also called HA-AhR; purified AhR; not shown: HA tag
T3 sequence: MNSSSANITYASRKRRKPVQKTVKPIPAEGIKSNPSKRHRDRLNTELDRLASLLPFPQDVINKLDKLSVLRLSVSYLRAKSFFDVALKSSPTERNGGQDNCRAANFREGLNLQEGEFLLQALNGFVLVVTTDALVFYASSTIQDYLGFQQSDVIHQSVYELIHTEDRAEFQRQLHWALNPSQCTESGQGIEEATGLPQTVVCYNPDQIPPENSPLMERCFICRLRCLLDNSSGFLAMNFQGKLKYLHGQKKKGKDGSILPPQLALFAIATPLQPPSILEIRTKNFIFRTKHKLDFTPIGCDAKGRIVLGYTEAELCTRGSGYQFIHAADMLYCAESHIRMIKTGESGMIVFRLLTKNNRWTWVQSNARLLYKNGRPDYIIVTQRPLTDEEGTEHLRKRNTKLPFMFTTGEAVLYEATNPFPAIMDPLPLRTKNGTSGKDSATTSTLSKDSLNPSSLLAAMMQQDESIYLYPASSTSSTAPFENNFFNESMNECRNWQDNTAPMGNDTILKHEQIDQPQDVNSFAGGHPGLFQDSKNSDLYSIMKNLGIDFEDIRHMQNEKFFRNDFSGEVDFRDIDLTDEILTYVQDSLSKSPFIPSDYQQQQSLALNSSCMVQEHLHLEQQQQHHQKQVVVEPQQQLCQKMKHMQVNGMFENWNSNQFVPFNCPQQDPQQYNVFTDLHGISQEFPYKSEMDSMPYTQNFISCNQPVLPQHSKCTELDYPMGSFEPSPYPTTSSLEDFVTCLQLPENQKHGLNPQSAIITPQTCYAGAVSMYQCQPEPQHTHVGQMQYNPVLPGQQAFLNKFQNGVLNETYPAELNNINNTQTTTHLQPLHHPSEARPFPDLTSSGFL

IQGAP1, endogenous, lung tissues of mice in the LLC/luc metastatic lung cancer model, sequence (Q9JKF1 2-1657 limits assumed): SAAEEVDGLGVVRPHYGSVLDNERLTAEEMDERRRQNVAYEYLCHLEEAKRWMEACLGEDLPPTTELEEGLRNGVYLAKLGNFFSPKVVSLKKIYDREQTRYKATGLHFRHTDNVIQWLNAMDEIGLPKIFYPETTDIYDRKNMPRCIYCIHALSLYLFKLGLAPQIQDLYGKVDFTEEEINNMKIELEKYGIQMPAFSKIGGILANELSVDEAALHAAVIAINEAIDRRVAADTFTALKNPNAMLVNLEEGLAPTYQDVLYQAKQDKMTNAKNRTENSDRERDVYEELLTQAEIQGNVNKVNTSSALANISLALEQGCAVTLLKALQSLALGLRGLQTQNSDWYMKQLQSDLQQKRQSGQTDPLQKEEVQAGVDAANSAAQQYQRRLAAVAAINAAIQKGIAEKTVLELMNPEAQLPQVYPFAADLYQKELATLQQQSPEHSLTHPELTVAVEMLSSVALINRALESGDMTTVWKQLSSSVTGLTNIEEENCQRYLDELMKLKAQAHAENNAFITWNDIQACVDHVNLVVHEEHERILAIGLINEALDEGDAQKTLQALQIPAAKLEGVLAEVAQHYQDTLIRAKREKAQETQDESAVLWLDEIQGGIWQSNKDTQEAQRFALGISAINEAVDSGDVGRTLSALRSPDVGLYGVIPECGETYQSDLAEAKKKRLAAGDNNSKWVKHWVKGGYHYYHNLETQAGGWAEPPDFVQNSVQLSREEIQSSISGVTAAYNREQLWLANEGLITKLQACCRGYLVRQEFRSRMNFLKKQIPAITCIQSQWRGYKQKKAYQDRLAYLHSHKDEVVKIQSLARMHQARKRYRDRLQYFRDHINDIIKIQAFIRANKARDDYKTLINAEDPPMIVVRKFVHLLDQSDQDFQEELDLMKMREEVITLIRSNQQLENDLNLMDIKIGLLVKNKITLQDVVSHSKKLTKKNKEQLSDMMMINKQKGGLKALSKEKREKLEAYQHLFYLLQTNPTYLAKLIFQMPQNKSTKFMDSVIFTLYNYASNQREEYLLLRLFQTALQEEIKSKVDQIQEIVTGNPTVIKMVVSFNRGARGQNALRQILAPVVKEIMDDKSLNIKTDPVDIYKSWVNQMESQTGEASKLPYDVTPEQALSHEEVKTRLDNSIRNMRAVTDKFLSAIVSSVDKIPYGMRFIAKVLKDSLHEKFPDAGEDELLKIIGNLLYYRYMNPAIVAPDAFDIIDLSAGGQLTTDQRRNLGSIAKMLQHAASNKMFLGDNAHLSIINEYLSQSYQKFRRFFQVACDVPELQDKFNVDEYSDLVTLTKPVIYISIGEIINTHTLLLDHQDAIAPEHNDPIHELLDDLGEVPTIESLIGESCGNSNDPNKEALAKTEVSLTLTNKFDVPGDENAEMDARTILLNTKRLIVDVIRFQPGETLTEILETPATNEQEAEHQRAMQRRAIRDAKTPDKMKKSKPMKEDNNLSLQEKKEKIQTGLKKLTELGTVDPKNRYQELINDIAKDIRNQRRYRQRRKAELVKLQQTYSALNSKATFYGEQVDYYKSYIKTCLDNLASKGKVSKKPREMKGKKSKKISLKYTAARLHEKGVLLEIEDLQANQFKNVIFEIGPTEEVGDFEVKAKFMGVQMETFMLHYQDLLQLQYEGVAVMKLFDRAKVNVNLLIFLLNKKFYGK
IQGAP1, endogenous, human NSCLC tissues, sequence (P46940 2-1657 limits assumed): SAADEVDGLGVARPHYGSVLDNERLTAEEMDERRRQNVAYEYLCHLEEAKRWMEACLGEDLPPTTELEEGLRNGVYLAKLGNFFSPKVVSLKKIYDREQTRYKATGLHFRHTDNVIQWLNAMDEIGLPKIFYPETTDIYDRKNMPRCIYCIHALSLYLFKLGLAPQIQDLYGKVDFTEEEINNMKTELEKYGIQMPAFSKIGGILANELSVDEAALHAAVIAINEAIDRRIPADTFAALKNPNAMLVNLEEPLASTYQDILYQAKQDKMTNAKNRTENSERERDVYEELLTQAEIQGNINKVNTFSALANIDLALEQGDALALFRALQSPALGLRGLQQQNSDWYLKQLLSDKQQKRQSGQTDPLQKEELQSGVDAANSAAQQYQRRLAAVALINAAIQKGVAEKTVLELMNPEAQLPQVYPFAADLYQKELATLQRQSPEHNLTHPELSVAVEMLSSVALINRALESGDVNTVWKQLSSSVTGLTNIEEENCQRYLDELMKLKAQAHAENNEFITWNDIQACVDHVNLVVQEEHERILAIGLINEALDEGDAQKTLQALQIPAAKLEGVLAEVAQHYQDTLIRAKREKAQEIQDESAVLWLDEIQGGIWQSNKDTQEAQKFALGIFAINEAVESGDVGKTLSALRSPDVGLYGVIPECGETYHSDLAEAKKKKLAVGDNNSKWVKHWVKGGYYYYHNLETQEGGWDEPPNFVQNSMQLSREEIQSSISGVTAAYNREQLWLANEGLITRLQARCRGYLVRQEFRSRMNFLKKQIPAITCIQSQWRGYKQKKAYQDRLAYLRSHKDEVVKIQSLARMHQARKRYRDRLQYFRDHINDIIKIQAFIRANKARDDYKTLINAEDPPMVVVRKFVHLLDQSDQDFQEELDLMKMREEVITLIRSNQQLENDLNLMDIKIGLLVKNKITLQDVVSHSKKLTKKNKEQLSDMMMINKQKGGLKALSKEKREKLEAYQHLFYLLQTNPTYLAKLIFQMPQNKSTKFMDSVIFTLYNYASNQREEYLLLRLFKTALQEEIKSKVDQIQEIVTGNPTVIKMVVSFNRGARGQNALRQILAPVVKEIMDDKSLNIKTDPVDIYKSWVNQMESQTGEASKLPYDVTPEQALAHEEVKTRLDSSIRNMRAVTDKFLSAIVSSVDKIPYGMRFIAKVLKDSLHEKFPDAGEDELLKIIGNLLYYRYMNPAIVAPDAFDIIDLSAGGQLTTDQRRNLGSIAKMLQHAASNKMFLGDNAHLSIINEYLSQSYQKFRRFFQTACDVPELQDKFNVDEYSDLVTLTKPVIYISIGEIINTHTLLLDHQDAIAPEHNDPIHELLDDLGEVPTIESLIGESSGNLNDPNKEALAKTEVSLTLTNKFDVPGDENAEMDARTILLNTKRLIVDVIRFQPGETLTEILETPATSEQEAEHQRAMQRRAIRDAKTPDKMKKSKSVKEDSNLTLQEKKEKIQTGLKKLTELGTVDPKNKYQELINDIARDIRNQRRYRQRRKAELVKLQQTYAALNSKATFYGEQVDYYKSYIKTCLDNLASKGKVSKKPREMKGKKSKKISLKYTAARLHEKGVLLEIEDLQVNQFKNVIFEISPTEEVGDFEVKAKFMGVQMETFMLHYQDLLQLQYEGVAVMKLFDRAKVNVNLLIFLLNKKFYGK

B1: GLK, endogenous, lung tissues of mice in the LLC/luc metastatic lung cancer model (enzyme)
chain: not shown
[1]
  binding result: binds

B2: AhR (transfected; construct of the ALPHA and FRET assays with PKCθ or GLK not stated) (receptor)
chain: T3 sequence
[2]
  binding result: no binding

B3: GLK, endogenous, human NSCLC tissues (enzyme, UniProt Q8IVH8 1-894, looked up)
chain: T1 sequence (looked up)
[3]
  binding result: binds

B4: RORγt, endogenous, human peripheral blood T cells (SLE and RA patients) (receptor, UniProt P51449-2 1-497, looked up)
chain: MRTQIEVIPCKICGDKSSGIHYGVITCEGCKGFFRRSQRCNAAYSCTRQQNCPIDRTSRNRCQHCRLQKCLALGMSRDAVKFGRMSKKQRDSLHAEVQKQLQQRQQQQQEPVVKTPPAGAQGADTLTYTLGLPDGQLPLGSSPDLPEASACPPGLLKASGSGPSYSNNLAKAGLNGASCHLEYSPERGKAEGRESFYSTGSQLTPDRCGLRFEEHRHPGLGELGQGPDSYGSPSFRSTPEAPYASLTEIEHLVQSVCKSYRETCQLRLEDLLRQRSNIFSREEVTGYQRKSMWEMWERCAHHLTEAIQYVVEFAKRLSGFMELCQNDQIVLLKAGAMEVVLVRMCRAYNADNRTVFFEGKYGGMELFRALGCSELISSIFDFSHSLSALHFSEDEIALYTALVLINAHRPGLQEKRKVEQLQYNLELAFHHHLCKTHRQSILAKLPPKGKLRSLCSQHVERLQIFQHLHPIVVQAAFPPLYKELFSTETESPVGLSK
[4]
  binding result: binds

B5: Flag-tagged RORγt-S489A mutant (receptor)
chain: DYKDDDDKMRTQIEVIPCKICGDKSSGIHYGVITCEGCKGFFRRSQQCNVAYSCTRQQNCPIDRTSRNRCQHCRLQKCLALGMSRDAVKFGRMSKKQRDSLHAEVQKQLQQQQQQEQVAKTPPAGSRGADTLTYTLGLSDGQLPLGASPDLPEASACPPGLLRASGSGPPYSNTLAKTEVQGASCHLEYSPERGKAEGRDSIYSTDGQLTLGRCGLRFEETRHPELGEPEQGPDSHCIPSFCSAPEVPYASLTDIEYLVQNVCKSFRETCQLRLEDLLRQRTNLFSREEVTSYQRKSMWEMWERCAHHLTEAIQYVVEFAKRLSGFMELCQNDQIILLKAGAMEVVLVRMCRAYNANNHTVFFEGKYGGVELFRALGCSELISSIFDFSHFLSALCFSEDEIALYTALVLINANRPGLQEKRRVEHLQYNLELAFHHHLCKTHRQGLLAKLPPKGKLRSLCSQHVEKLQIFQHLHPIVVQAAFPPLYKELFSTDVEAPEGLSK
HA-tagged AhR
  binding result: no binding
